Bounds are passed on as bounds.

B1: soluble bovine tumor necrosis factor receptor-I (TNF-RI) (receptor)
chain: LVPHPGDLEKRESPCPQGKYNHPQNSTICCTKCHKGTYLYNDCPGPGRDTDCRVCAPGTYTALENHLRRCLSCSRCRDEMFQVEISPCVVDRDTVCGCRKNQYREYWGETGFRCLNCSLCPNGTVNIPCQERQDTICHCHMGFFLKGAKCISCHDCKNKECEKLCPTRPSTGKDSQDPGTT
B2: bovine tumor necrosis factor-alpha (TNF-alpha) (ligand, UniProt Q06599 78-234, looked up)
chain: LRSSSQASSNKPVAHVVADINSPGQLRWWDSYANALMANGVKLEDNQLVVPADGLYLIYSQVLFRGQGCPSTPLFLTHTISRIAVSYQTKVNILSAIKSPCHRETPEWAEAKPWYEPIYQGGVFQLEKGDRLSAEINLPDYLDYAESGQVYFGIIAL
notes: Not purified; The whey samples served as the source of bovine TNF-alpha; also called bovine TNF-α; bovine TNF

Assay [1] deals with B2. Description: cell-based or functional assay.
The target in assay [2] is B1. Description: inferred from the TNF cytotoxicity inhibition assay on WEHI 164 cells; no direct binding assay.

For the molecule B1, the “fold potency at blocking bovine TNF-α, against MAb BC9” value in assay [1] was > 2 fold (vs MAb BC9). As to B2, in assay [2], the binding result is recorded as “binds”.

These data come from patent publication US20020076765A1 (IOWA STATE UNIVERSITY RESEARCH FOUNDATION, published 2002).
